This note sets out measurements from patent US6638905B2, “Cloning and recombinant production of CFR receptor(s)” (priority 1993, dated 2003).

Test [1] has as its target T1, hCRF-RA1 (CRF receptor encoded by clone hctCRFR) (Homo sapiens, UniProt P34998).
T1 construct: expressed in transfected cells; host or cells: COSM6 cells, DEAE-dextran transient transfection of clone hctCRFR in pcDNA1
T1 sequence (P34998 24-415): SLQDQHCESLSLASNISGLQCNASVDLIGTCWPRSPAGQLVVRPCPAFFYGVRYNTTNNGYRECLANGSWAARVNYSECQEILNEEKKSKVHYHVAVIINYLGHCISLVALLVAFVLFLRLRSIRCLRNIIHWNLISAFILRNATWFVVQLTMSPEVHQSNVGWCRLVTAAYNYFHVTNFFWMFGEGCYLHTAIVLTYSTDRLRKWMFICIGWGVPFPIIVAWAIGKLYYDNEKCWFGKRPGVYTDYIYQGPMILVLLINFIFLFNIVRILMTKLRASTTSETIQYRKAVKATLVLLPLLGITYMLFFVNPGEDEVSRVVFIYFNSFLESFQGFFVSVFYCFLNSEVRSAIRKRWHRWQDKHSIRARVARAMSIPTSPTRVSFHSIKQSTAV
The experiment in a line: Competitive radioreceptor assay: displacement of 125I-(Nle21,Tyr32)-ovine CRF from membranes of COSM6 cells transfected with hctCRFR. It counts as binding. To be noted: receptor of SEQ ID NO:2. Here is the method: Approximately 10^6 COSM6 cells were transfected with either […] or […] (rat gonadotropin releasing hormone receptor) by the DEAE-dextran method and grown in 150 mm tissue culture dishes. Two days after transfection, the cells were washed twice with 1 ml HDB and were detached by incubation for 15 min at room temperature in 0.5 mM EDTA in HDB. After pelleting, the cells were washed twice with HDB, and then homogenized in 5% sucrose (16 ml/150 mm dish). […] The reaction was terminated by filtration through GF/C (Whatman) filters, prewetted with 1%BSA, 10 mM HEPES, pH 7.5. The filters were washed 4 times with 1 ml 0.1% BSA, 50 mM Tris, pH 7.5. Filter-bound radioactivity, indicating the presence of CRF-R:^125 I-([…],Tyr^32)-ovine CRF complex, was determined by g-scintillation counting.

For test [2], the target named is T2, CRF-RB1 (Mus musculus, UniProt Q60748).
T2 construct: The full-length CRF-RB1 receptor cDNA was subcloned into the expression vector pcDNA1; expressed in transfected cells; host or cells: COSM6 cells, DEAE-dextran transient transfection of pCRF-RB1
Put plainly: Competitive displacement of 125I-(Nle21,Tyr32)-ovine CRF from membranes of COSM6 cells transfected with pCRF-RB1. It counts as binding. Particulars: for displacement of bound radioligand (in words): specificity of binding. Here is the method: Approximately 10^6 COSM6 cells were transfected with either hctCRFR or rGnRHR (rat gonadotropin releasing hormone receptor) by the DEAE-dextran method and grown in 150 mm tissue culture dishes. Two days after transfection, the cells were washed twice with 1 ml HDB and were detached by incubation for 15 min at room temperature in 0.5 mM EDTA in HDB. After pelleting, the cells were washed twice with HDB, and then homogenized in 5% sucrose (16 ml/150 mm dish). The homogenate was centrifuged at 600×g for 5 minutes, and the resulting supernatant was centrifuged at 40,000×g for 20 minutes. The resulting pellet (containing crude membranes) was resuspended at 1-4 mg/ml in 10% sucrose, and used in a competitive radioreceptor assay to measure binding to the CRF-R as described in Perrin et al., Endoc., 118:1171 (1986).
The reaction was terminated by filtration through GF/C (Whatman) filters, prewetted with 1%BSA, 10 mM HEPES, pH 7.5. The filters were washed 4 times with 1 ml 0.1% BSA, 50 mM Tris, pH 7.5.
Using the methods described in Example 3, a radioreceptor assay was conducted. Approximately […] of pCRF-RB1 plasmid DNA was transfected into COSM6 cells using the DEAE dextran method. […] In order to calculate a Kd the displacement data were analyzed using the Ligand program of Munson and Rodbard (1980), Anal. Biochem., 107:220-239.
For orientation: In a radioligand displacement assay an active substance lowers the binding of a labelled ligand.

Test [3] concerns the target T3, CRF-RB1 expressed in COSM6 cells (Mus musculus, UniProt Q60748).
T3 construct: The full-length CRF-RB1 receptor cDNA was subcloned into the expression vector pcDNA1; expressed in transfected cells; host or cells: COSM6 cells, DEAE-dextran transient transfection of pCRF-RB1
The experiment in a line: CRF-RB1 mediated stimulation of intracellular cAMP in COSM6 cells transfected with pCRF-RB1. Particulars: for stimulation of intracellular cAMP accumulation (in words): FIG. 5. It is filed as cell-based. As to the method:
Using methods described in Example 4, the ability of CRF-RB1 to stimulate cAMP formation in CRF-RB1-expressing COSM6 cells was investigated. The plasmid pCRF-RB1 was transfected into COSM6 cells. One day later, the cells were trypsinized and replated in 10% FBS, DMEM into 24 or 48 well COSTAR tissue culture wells, and allowed to grow another 24 hours. The medium was changed to 0.1% FBS, DMEM at least two hours before treatments. The cells were preincubated for 30 minutes with 0.1 mM 3-isobutyl-1-methylxanthine and then exposed to various peptides for 30 minutes at 37° C. Intracellular cAMP was measured in duplicate from triplicate wells using an RIA kit (Biomedical Technologies, Stoughton, Mass.).
In general terms: Cyclic AMP is a second messenger, typically raised through Gs and lowered through Gi signalling.

Test [4] addresses T4, CRF-RA1 (hctCRFR) expressed in COSM6 cells (Homo sapiens, UniProt P34998).
T4 construct: expressed in transfected cells; host or cells: COSM6 cells, DEAE-dextran transient transfection of clone hctCRFR in pcDNA1
T4 sequence (P34998 24-415): T1 sequence (P34998 24-415)
The experiment in a line: CRF-R mediated stimulation of intracellular cAMP in COSM6 cells transfected with hctCRFR. It is filed as cell-based. Particulars: receptor transfected COSM6 cells. Here is the method: To determine the possible linkage of CRF-R to multiple signaling pathways, the ability of CRF-R to stimulate cAMP formation in CRF-R-expressing COSM6 cells was investigated. To ensure that changes in cAMP levels were not influenced by alterations in cAMP phosphodiesterase, the phosphodiesterase inhibitor 3-isobutyl-1-methylxanthine (IBMX) was added to the medium. COSM6 cells were trypsinized 24 hrs following transfection with either ctCRFR or rGnRHR in 150 mm dishes and were replated in 24-well plates (Costar) and allowed to express the receptors for another 24 hrs in 10% FCS, DMEM.
On the day of the stimulation, the medium was changed to 0.1 w FCS, DMEM at least 2 hrs before a 30 minute preincubation with 0.1 mM IBMX or medium. Test ligands (i.e., r/h CRF, sauvagine, salmon calcitonin, Vasoactive intestinal peptide (VIP), growth hormone releasing factor (GRF) were added in 0.1% BSA, 0.1% FCS, DMEM, and stimulation was carried out for 30 minutes at 37° C., 7.5% CO2. The medium was removed and the cells were extracted overnight with 1 ml ice-cold 95% EtOH-0.1M HCl at −20° C. Cyclic AMP (cAMP) levels were determined in duplicate from triplicate wells by RIA kit (Biomedical Technologies, Stoughton, Mass.) following the manufacturer's protocol.

No end group written: not given here.

Usually Ki stands for the dissociation constant of the complex between target and ligand, obtained from inhibition or displacement. Low readings indicate a stronger hold on the target, high ones a looser hold on the target.

T3 sequence (Q60748 1-431 isoform Q60748-2): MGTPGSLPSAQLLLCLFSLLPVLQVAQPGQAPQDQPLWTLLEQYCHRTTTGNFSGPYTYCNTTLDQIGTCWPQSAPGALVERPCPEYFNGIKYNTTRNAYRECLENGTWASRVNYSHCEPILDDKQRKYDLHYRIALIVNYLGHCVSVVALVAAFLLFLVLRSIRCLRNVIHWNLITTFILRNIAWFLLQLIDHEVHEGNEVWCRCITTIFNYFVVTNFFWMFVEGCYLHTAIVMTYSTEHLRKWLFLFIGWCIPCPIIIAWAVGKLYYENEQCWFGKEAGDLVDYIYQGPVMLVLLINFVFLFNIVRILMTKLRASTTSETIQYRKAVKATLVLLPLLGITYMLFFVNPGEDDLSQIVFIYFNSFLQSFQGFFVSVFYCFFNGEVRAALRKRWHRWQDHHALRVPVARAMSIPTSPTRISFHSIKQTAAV
T2 sequence (Q60748 1-431 isoform Q60748-2): as above

Take ovine CRF: the “affinity of the receptor for the ligand (in words)” value (shortened to “affinity of the receptor”) in test [1] is listed as “high affinity”.
Consider (DPhe^12,Nle^21,38)hCRF(12-41), for which the “affinity of the CRF-Rs for the ligand (in words)” value (shortened to “affinity of the CRF-Rs”) in test [2] is reported as “high affinity”. Moreover, in test [3] (1 mM antagonist), the “inhibition of the CRF signal by antagonist (in words)” value is reported as “inhibited”. In addition, in test [1], the “affinity of the receptor” value is given as “high affinity”.
As to `CC[C@H](C)[C@H](NC(=O)[C@@H](NC(=O)[C@H](CC(=O)O)NC(=O)[C@H](CC(C)C)NC(=O)[C@H](CC(C)C)NC(=O)[C@H](CC(C)C)NC(=O)[C@H](CCCNC(=N)N)NC(=O)[C@H](CC(N)=O)NC(=O)[C@H](CC(N)=O)NC(=O)[C@H](C)NC(=O)[C@H](C)NC(=O)[C@H](CCC(N)=O)NC(=O)[C@H](CCC(N)=O)NC(=O)[C@H](CCCCN)NC(=O)[C@H](CCC(=O)O)NC(=O)[C@H](CCCCN)NC(=O)[C@H](CCC(=O)O)NC(=O)[C@H](CCC(N)=O)NC(=O)[C@H](CCCCN)NC(=O)[C@H](CCC(=O)O)NC(=O)[C@@H](NC(=O)[C@H](CCC(=O)O)NC(=O)[C@@H](NC(=O)[C@H](CCSC)NC(=O)[C@H](CCCCN)NC(=O)[C@H](CCCNC(=N)N)NC(=O)[C@H](CC(C)C)NC(=O)[C@H](CC(C)C)NC(=O)[C@H](CCC(=O)O)NC(=O)[C@H](CC(C)C)NC(=O)[C@H](CO)NC(=O)[C@H](CC(C)C)NC(=O)[C@H](CC(=O)O)NC(=O)[C@@H](NC(=O)[C@H](CO)NC(=O)[C@@H](NC(=O)[C@@H]1CCCN1C(=O)[C@@H]1CCCN1C(=O)CNC(=O)[C@@H]1CCC(=O)N1)[C@@H](C)CC)[C@@H](C)CC)[C@@H](C)CC)[C@@H](C)CC)[C@@H](C)O)C(N)=O` [sauvagine], the “affinity of the CRF-Rs” value in test [2] is recorded as “high affinity”. Besides, in test [3], the “stimulation of intracellular cAMP accumulation (in words)” value (“stimulation” below) is on record as “equipotent to CRF”.
With “gonadotropin releasing hormone: non-related peptide”, in test [4], the “effect on cyclic AMP levels / activity of non-related peptides (in words)” value is “inactive”.
Turning to salmon calcitonin: non-related peptide, the “effect on cyclic AMP levels / activity of non-related peptides (in words)” value in test [4] is “inactive”.
Consider “NDDPPISIDLTFHLLRNMIEMARIENEREQAGLNRKYLDEV-NH2 (C-terminus assumed) [urotensin]”, for which the “affinity of the CRF-Rs” value in test [2] is reported as “high affinity”. The same molecule registered an inhibition constant (Ki) in test [2] (on CRF-RB) of 0.7 ± 0.3 nM. The “stimulation” value in test [3] is “equipotent to CRF”. Further, the “affinity of the receptor” value in test [1] is reported as “high affinity”.
As for “SQEPPISLDLTFHALREVLEMTKADQLAQQAHSNRKLLDIA-NH2 (C-terminus assumed) [[Ala^14]-ovine CRF]”, the “affinity of the receptor” value in test [1] was “very low affinity”.
Turning to “VIP: vasoactive intestinal peptide, non-related peptide”, the “displacement of bound radioligand (in words)” value in test [2] was “do not displace”. Besides, in test [4], the “effect on cyclic AMP levels / activity of non-related peptides (in words)” value was “inactive”. Moreover, the “stimulation” value in test [3] is listed as “do not stimulate”.
For “GRF: growth hormone releasing factor, non-related peptide (YADAIFTNSYRKVLGQLSARKLLQDIMSRQQGESNQERGA)”, in that order: “do not displace”, “inactive” and “do not stimulate”.
